Test results from US20240254182A1 (PROVINCIAL HEALTH SERVICES AUTHORITY, published 2024).
Numbering of substitutions follows the chain as printed.

Tests used:
[1] = molecular target: T1, combination design 401 G-CSFR(Ig-CRH)E with N-terminal hexahistidine tag (human, UniProt Q99062 25-331); assay: co-expression in insect cells, pulldown via the Twin Strep tag on G-CSF, reducing SDS-PAGE; G-CSFR(Ig-CRH) format
T1 chain: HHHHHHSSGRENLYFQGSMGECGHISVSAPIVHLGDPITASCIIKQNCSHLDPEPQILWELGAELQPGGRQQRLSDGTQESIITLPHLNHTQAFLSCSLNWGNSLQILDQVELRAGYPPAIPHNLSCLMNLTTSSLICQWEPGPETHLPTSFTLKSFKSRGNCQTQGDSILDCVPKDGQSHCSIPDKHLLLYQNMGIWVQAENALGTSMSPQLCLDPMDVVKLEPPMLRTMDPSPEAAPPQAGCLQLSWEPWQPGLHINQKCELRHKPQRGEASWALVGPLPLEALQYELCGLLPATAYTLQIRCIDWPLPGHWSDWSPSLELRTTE
Method: (§1) The P2 viral stocks were tested for protein expression in small-scale. P2 virus was used to co-infect G-CSFE mutants with their corresponding G-CSFRE mutant in Trichoplusia ni (Tni) cells in 12-well plates. Separate co-infections for each design mutant were performed using the P2 stocks of G-CSFWT and GCSFR(CRH)WT, as well as for G-CSFE mutants alone. For each reaction, 2 mL of healthy log-phase Tni at 2×10⁶ cells ml⁻¹ was inoculated with 20 μl P2 virus. Plates were incubated at 27° C. for approximately 70 h with shaking at 135 rpm. […] Briefly, to each 1.8 mL reaction supernatant 0.2 mL 10× HEPES Buffered Saline (HBS: 20 mM HEPES pH8, 150 mM NaCl) was added to 1×, 20 μl bed volume (b.v) of purification beads added and reactions incubated for 30 minutes with end-over-end mixing at 24° C. An additional 20 μl b.v of purification beads was added followed by a second 30 minute incubation. Beads were pelleted by centrifugation at 2200 rpm for 3 minutes, supernatant was removed and the beads washed with 1× HBS buffer.
(§2) The co-expression assay with pulldown through the cytokine TST tag was performed as described above in Example 2, with the difference that the receptor constructs contained the Ig and CRH domains (residues 2-308, Table 1) referred to as G-CSFR(Ig-CRH).

[2] = molecular target: T2, combination design 402 G-CSFR(Ig-CRH)E with N-terminal hexahistidine tag (human, UniProt Q99062 25-331); assay: as above
T2 chain: T1 chain with D186E, Q193E, D307E
Method: as §1, §2

[3] = molecular target: T3, site II design 30 G-CSFR(CRH)E with N-terminal hexahistidine tag (human, UniProt Q99062 120-331); assay: WT G-CSF co-expressed with variant G-CSFR(CRH) in insect cells, pulldown via the Twin Strep tag on G-CSF, reducing SDS-PAGE
T3 construct: also called design #30 G-CSFRE
T3 chain: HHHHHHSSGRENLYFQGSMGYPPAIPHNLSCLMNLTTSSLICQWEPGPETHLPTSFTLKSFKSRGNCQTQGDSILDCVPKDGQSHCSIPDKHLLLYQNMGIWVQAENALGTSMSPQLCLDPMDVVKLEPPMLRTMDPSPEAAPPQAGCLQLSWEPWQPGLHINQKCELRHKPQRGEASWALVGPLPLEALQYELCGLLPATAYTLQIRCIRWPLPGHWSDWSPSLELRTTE
Method: as §1

[4] = molecular target: T4, site II design 15 G-CSFR(CRH)E with N-terminal hexahistidine tag (human); assay: as above
T4 construct: also called design #15 G-CSFRE
T4 chain: T3 chain with D90R, L94R, Y96V, D120R
Method: as §1

[5] = molecular target: T5, site II design 34 G-CSFR(CRH)E with N-terminal hexahistidine tag (human, UniProt Q99062 120-331); assay: as above
T5 construct: also called design #34 G-CSFRE
T5 chain: T3 chain with R64E
Method: as §1

[6] = molecular target: T6, site II design 35 G-CSFR(CRH)E with N-terminal hexahistidine tag (human); assay: as above
T6 construct: also called design #35 G-CSFRE
T6 chain: T3 chain with R64E, D90R, L94E, Q97E
Method: as §1

[7] = molecular target: T7, WT G-CSFR(Ig-CRH), purified, tag cleaved (human, UniProt Q99062 26-331); assay: SPR (Biacore T200), WT receptor amine-coupled, cytokine injected
T7 construct: also called G-CSFRWT; wild type G-CSFR(Ig-CRH)
T7 chain: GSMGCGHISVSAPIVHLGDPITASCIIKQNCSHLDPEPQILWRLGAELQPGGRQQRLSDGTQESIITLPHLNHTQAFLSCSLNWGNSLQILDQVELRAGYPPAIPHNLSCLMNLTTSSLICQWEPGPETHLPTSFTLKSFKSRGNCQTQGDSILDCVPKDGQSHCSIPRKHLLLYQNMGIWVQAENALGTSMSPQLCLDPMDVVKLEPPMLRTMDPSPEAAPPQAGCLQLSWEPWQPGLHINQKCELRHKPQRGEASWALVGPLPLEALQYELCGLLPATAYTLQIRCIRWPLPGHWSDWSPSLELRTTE
Method: (§3) The SPR binding assays were carried out on a Biacore T200 instrument (GE Healthcare, Mississauga, ON, Canada) with PBS-T (PBS+0.05% (v/v) Tween 20) running buffer at a temperature of 25° C. CM5 Series S sensor chip, Biacore amine coupling kit (NHS, EDC and 1 M ethanolamine), and 10 mM sodium acetate buffers were all purchased from GE Healthcare. PBS running buffer with 0.05% Tween20 (PBS-T) was purchased from Teknova Inc. (Hollister, CA). Designs were assessed in three different immobilization orientations.
To assess binding affinity of G-CSFE to G-CSFRWT, recombinant G-CSFRWT purified as described in Example 5 was captured as described above in this Example. Using single-cycle kinetics, six concentrations of a two-fold dilution series of each G-CSFE mutant starting at […] with a blank buffer control were sequentially injected as described above. The same sample titration was also performed on a reference cell with no variants captured. The G-CSFRWT surface was regenerated as described above.
(§4) Double-referenced sensorgrams from duplicate or triplicate repeat injections were analyzed using Biacore™ T200 Evaluation Software v3.0 and fit to the 1:1 Langmuir binding model.

[8] = molecular target: T8, design 300 G-CSFR(Ig-CRH)E, tag cleaved (human, UniProt Q99062 26-331); assay: SPR, G-CSFRE amine-coupled, G-CSFE injected, single-cycle kinetics
T8 chain: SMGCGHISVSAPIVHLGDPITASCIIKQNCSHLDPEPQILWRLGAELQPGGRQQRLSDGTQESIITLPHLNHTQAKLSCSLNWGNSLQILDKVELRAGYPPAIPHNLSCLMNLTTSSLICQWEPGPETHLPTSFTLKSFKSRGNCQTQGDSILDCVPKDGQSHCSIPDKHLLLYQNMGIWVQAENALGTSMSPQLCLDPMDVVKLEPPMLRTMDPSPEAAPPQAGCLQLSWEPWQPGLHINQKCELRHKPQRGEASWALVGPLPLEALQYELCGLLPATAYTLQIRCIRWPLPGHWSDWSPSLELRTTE
Method: as §3
(§5) To determine binding affinity of G-CSFE to G-CSFRE the G-CSFRE mutant was captured by standard amine coupling as described by the manufacturer (GE LifeSciences). Briefly, immediately after EDC/NHS activation, a 5 μg/mL solution of G-CSFRE in 10 mM NaOAc, pH 5.0, was injected at a flow rate of 5 μL/min until a receptor density of ˜700-900 RU was reached. The remaining active groups were quenched by a 420 s injection of 1 M ethanolamine hydrochloride-NaOH pH 8.5 at 10 μL/min. Using single-cycle kinetics, six concentrations of a two-fold dilution series of the corresponding G-CSFE mutant starting at 200 nM with a blank buffer control were sequentially injected at 25 μL/min for 300 s with a 1800 s dissociation phase, resulting in a set of sensorgrams with a buffer blank reference. The same sample titration was also performed on a reference cell with no variants captured. The chip was regenerated to prepare for the next injection cycle by one pulse of 10 mM glycine/HCl, pH 2.0, for 30 s at 30 μL/min.
as §4

[9] = molecular target: T9, design 303 G-CSFR(Ig-CRH)E, tag cleaved (human, UniProt Q99062 26-331); assay: SPR, G-CSFRE amine-coupled, G-CSFE injected; steady state derived affinity constant
T9 chain: T8 chain with K76F, K92Q, E94K
Method: as §5, §4
Kinetic-derived affinity constants (KD) where obtained by fitting the association and dissociation phases of the curves. The KD of WT G-CSF for WT G-CSFR(Ig-CRH) ranged between 1.8-2.5E-9. For the cases in which the kinetic parameters could not be fit an attempt was made to derive a steady state affinity constant. In those cases, the KD fold change was calculated from the steady state derived KD for the WT G-CSF:WT G-CSFR(Ig-CRH) pair and is indicated in Table 7.

[10] = molecular target: T10, design 304 G-CSFR(Ig-CRH)E, tag cleaved (human, UniProt Q99062 26-331); assay: SPR, G-CSFRE amine-coupled, G-CSFE injected, single-cycle kinetics
T10 chain: T8 chain with R42E, K76F, K92Q, E94K
Method: as §3, §5, §4

B1: WT G-CSF with C-terminal Twin Strep tag (ligand)
chain: not shown
notes: construct of the insect-cell co-expression pulldown; also called G-CSFWT
binding result [1]: no binding | binding result [2]: no binding | binding result [3]: no binding | binding result [4]: no binding | binding result [5]: no binding | binding result [6]: no binding

B2: design 300 G-CSFE, tag cleaved (ligand)
chain: TPLGPASSLPQSFLLKCLEQVRKIQGDGAALQEKLCATYDDCHPEELVLLGHSLGIPWAPLSSCPSQALQLAGCLSQLHSGLFLYQGLLQALEGISPELGPTLDTLQKDVARFATTIWQQMEELGMAPALQPTQGAMPAFASAFQRRAGGVLVASHLQSFLEVSYRVLRHLAQAAAENLYFQ
notes: also called design 300 G-CSFE mutant
binding result [7]: no binding | KD fold change (against WT:WT) [8]: 194 fold

B3: design 303 G-CSFE, tag cleaved (ligand)
chain: B2 chain with D40K, D41L, R147E
notes: also called design 303 G-CSFE mutant
binding result [7]: no binding | KD fold change (against WT:WT) [9]: 2.2 fold

B4: design 304 G-CSFE, tag cleaved (ligand)
chain: B2 chain with D40K, D41L, E46R, R147E
binding result [7]: no binding | KD fold change (against WT:WT) [10]: 6.5 fold
